{"source": "patent US20160159919A1", "about": "(Chugai, published 2016)", "binders": {"B1": {"name": "H57-G1d/LB-k (antibody, human IgG1, kappa, V domains shown)", "VH": "QDQLVQSGAEVKKPGASVKVSCKASGFNIKDTYIQWVRQAPGQGLEWMGRIDPLTGNTKYVPKFQGRVTITADTSTNTAYMELSSLRSEDTAVYYCVRSGTLFDFWGQGTLVTVSS", "VL": "DIQMTQSPSSLSASVGDRVTITCKASQDIHKYIAWYQQKPGQAPRLLIQYTSTLQPGVPSRFSGSGSGTDYTFTISSLQPEDIATYYCLQYDNLRTFGGGTKVEIKR", "notes": "also called H57-G1/LB-k"}, "B2": {"name": "H61-G1d/LB-k (antibody, human IgG1, kappa, V domains shown)", "VH": "QDQLVQSGAEVKKPGASVKVSCKASGFNIKDTYIQWVRQAPGQGLEWMGRIDPLKGNTKYVPKFQGRVTITADTSTNTAYMELSSLRSEDTAVYYCVRSGTLFDFWGQGTLVTVSS", "VL": "DIQMTQSPSSLSASVGDRVTITCKASQDIHKYIAWYQQKPGQAPRLLIQYTSTLQPGVPSRFSGSGSGTDYTFTISSLQPEDIATYYCLQYDNLRTFGGGTKVEIKR", "notes": "also called H61-G1/LB-k"}, "B3": {"name": "H65-G1d/LB-k (antibody, human IgG1, kappa, V domains shown)", "VH": "QDQLVQSGAEVKKPGASVKVSCKASGFNIKDTYIQWVRQAPGQGLEWMGRIDPLFGNTKYVPKFQGRVTITADTSTNTAYMELSSLRSEDTAVYYCVRSGTLFDFWGQGTLVTVSS", "VL": "DIQMTQSPSSLSASVGDRVTITCKASQDIHKYIAWYQQKPGQAPRLLIQYTSTLQPGVPSRFSGSGSGTDYTFTISSLQPEDIATYYCLQYDNLRTFGGGTKVEIKR", "notes": "also called H65-G1/LB-k"}, "B4": {"name": "H66-G1d/LB-k (antibody, human IgG1, kappa, V domains shown)", "VH": "QDQLVQSGAEVKKPGASVKVSCKASGFNIKDTYIQWVRQAPGQGLEWMGRIDPLVGNTKYVPKFQGRVTITADTSTNTAYMELSSLRSEDTAVYYCVRSGTLFDFWGQGTLVTVSS", "VL": "DIQMTQSPSSLSASVGDRVTITCKASQDIHKYIAWYQQKPGQAPRLLIQYTSTLQPGVPSRFSGSGSGTDYTFTISSLQPEDIATYYCLQYDNLRTFGGGTKVEIKR", "notes": "also called H66-G1/LB-k"}, "B5": {"name": "H67-G1d/LB-k (antibody, human IgG1, kappa, V domains shown)", "VH": "QDQLVQSGAEVKKPGASVKVSCKASGFNIKDTYIQWVRQAPGQGLEWMGRIDPLLGNTKYVPKFQGRVTITADTSTNTAYMELSSLRSEDTAVYYCVRSGTLFDFWGQGTLVTVSS", "VL": "DIQMTQSPSSLSASVGDRVTITCKASQDIHKYIAWYQQKPGQAPRLLIQYTSTLQPGVPSRFSGSGSGTDYTFTISSLQPEDIATYYCLQYDNLRTFGGGTKVEIKR", "notes": "also called H67-G1/LB-k"}, "B6": {"name": "H71-G1d/LB-k (antibody, human IgG1, kappa, V domains shown)", "VH": "QDQLVQSGAEVKKPGASVKVSCKASGFNIKATYIQWVRQAPGQGLEWMGRIDPLNGNTKYVPKFQGRVTITADTSTNTAYMELSSLRSEDTAVYYCVRSGTLFDFWGQGTLVTVSS", "VL": "DIQMTQSPSSLSASVGDRVTITCKASQDIHKYIAWYQQKPGQAPRLLIQYTSTLQPGVPSRFSGSGSGTDYTFTISSLQPEDIATYYCLQYDNLRTFGGGTKVEIKR", "notes": "also called H71-G1/LB-k"}, "B7": {"name": "H87-G1d/L21-k (antibody, human IgG1, kappa, V domains shown)", "VH": "QDQLVQSGAEVKKPGASVKVSCKASGFNIKDTYIQWVRQAPGQGLEWMGRIDPLTGQTKYQEKFEGRVTITADTSTNTAYMELSSLRSEDTAVYYCVRSGTSFDFWGQGTLVTVSS", "VL": "DIQMTQSPSSLSASVGDRVTITCQASQDIHKYIAWYQQKPGQAPRLLIQYTSTLQPGVPSRFSGSGSGTDYTFTISSLQPEDIATYYCLQYDNLRTFGGGTKVEIER"}, "B8": {"name": "H87-G1d/L37-k (antibody, human IgG1, kappa, V domains shown)", "VH": "QDQLVQSGAEVKKPGASVKVSCKASGFNIKDTYIQWVRQAPGQGLEWMGRIDPLTGQTKYQEKFEGRVTITADTSTNTAYMELSSLRSEDTAVYYCVRSGTSFDFWGQGTLVTVSS", "VL": "DIQMTQSPSSLSASVGDRVTITCQASQDIHKYIAWYQQKPGQAPRLLIQYTSTLQPGVPSRFSGSGSGTDYTLTISSLQPEDFATYYCLQYDNLRTFGGGTKVEIKR"}, "B9": {"name": "HY-G1d/L2-k (antibody, human IgG1, kappa, V domains shown)", "VH": "QDQLVQSGAEVKKPGASVKVSCKASGFNIKDTYIQWVRQAPGQGLEWMGRIDPLNGNTKYVPKFQGRVTITADTSTNTAYMELSSLRSEDTAVYYCVRSGTLFDFWGQGTLVTVSS", "VL": "DIQMTQSPSSLSASVGDRVTITCSASQDIHKYIAWYQQKPGQAPRLLIQYTSTLQPGVPSRFSGSGSGTDYTFTISSLQPEDIATYYCLQYDNLRTFGGGTKVEIKR"}}, "target": "T1, soluble human EREG fragment having a mature EGF domain structure (R&D Systems cat. no. 1195-EP/CF) (human, UniProt O14944 63-108)", "T1 construct": "bought; coated on ELISA plates; also called human epiregulin; recombinant human Epiregulin", "T1 sequence (O14944 63-108 limits assumed)": "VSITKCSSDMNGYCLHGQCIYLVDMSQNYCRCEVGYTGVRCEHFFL", "test": "competitive ELISA on coated soluble human EREG fragment", "procedure": "The soluble human EREG fragment having a mature EGF domain structure (the polypeptide of SEQ ID NO: 34 which corresponds to ⁶³Val to ¹⁰⁸Leu) was purchased from R&D Systems (cat. no. 1195-EP/CF). The soluble human EREG fragment was used to coat nunc immunoplates, and after blocking with a BSA-containing solution, the competitive binding reactivity between mouse hybridoma-derived EP27 and the purified humanized anti-EREG antibody was analyzed. Mouse hybridoma-derived EP27 and a purified humanized anti-EREG antibody were added to the plates, and after two hours of incubation, the plates were washed; and an alkaline phosphatase-labeled anti-human IgG antibody (Zymed) was added to each well of the plates and then allowed to react. Each well was washed, and then the amount of bound antibody (A405/655 detection value) was determined by addition of a test reagent, Sigma p-Nitrophenyl phosphate Tablets."}
{"binder": "B1", "values": [{"measurement": "binding result", "value": "binds"}]}
{"binder": "B2", "values": [{"measurement": "binding result", "value": "binds"}]}
{"binder": "B3", "values": [{"measurement": "binding result", "value": "binds"}]}
{"binder": "B4", "values": [{"measurement": "binding result", "value": "binds"}]}
{"binder": "B5", "values": [{"measurement": "binding result", "value": "binds"}]}
{"binder": "B6", "values": [{"measurement": "binding result", "value": "binds"}]}
{"binder": "B7", "values": [{"measurement": "binding result", "value": "binds"}]}
{"binder": "B8", "values": [{"measurement": "binding result", "value": "binds"}]}
{"binder": "B9", "values": [{"measurement": "binding result", "value": "binds"}]}
